In patent US20180043014A1 (CELLDEX THERAPEUTICS, published 2018) one finds Kd data, which are given here for one molecule.

The target in this assay is T1, CG56972-ECD, recombinant human GPNMB extracellular domain (aa 23-480), GPNMB-V5His (human, UniProt Q14956 23-492).
T1 construct: Expressed in HEK293 cells; also called GPNMB-V5His immunogen; purified CG56972-ECD protein; not shown: The tag would matter only for the xV5 reagent, not for the anti-GPNMB antibodies
T1 sequence: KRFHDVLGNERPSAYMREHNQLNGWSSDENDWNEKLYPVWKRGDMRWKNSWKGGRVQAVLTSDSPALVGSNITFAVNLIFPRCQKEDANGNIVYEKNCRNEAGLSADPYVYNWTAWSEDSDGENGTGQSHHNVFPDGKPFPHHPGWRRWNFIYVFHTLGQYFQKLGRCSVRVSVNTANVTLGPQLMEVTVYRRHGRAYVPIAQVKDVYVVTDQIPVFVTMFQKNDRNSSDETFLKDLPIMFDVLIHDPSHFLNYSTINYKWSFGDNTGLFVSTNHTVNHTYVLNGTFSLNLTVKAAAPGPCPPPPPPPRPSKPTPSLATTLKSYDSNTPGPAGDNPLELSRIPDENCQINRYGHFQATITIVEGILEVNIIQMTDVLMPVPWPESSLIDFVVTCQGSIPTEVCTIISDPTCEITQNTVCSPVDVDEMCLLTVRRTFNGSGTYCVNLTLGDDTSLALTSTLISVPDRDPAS
Briefly: method not stated; purified CG56972-ECD protein.

B1: CR011, fully human monoclonal antibody Mab 1.15.1 (IgG2) (antibody, V domains shown)
VH: QVQLQESGPGLVKPSQTLSLTCTVSGGSISSFNYYWSWIRHHPGKGLEWIGYIYYSGSTYSNPSLKSRVTISVDTSKNQFSLTLSSVTAADTAVYYCARGYNWNYFDYWGQGTLVTVSS
VL: not shown
notes: The unconjugated IgG2 form was used in flow cytometry; also called CR011 (anti-GPNMB)
As a reminder, the Kd is the constant that tells how readily two partners part at equilibrium. Regarding B1, the Kd came out at 52 nM.
